In patent US8785135B2, “Mutant G-protein coupled receptors and methods for selecting them” (Heptares Therapeutics Limited, priority 2007, dated 2014):

Assay: Thermostability of NTR and mutants (3H-neurotensin binding)
Assay type: physicochemical
Settings: for thermostability, 3H-neurotensin (agonist) binding after the heating step: heated in the absence of the agonist
Protocol: FIG. 12 Flow chart showing the two different assay formats of ligand (+) and ligand (−) used to determine receptor thermostability.
• 1. 340 site-directed mutants have been made between residues 61-400 of NTR. • 2. Initially, all of these mutants were assayed for thermostability using an assay measuring ^3H-neurotensin (agonist) binding after the heating step. […] Mutants tested for thermostability by heating in the absence of the agonist were re-tested using a slightly different assay where the mutants were heated in the presence of ^3H-neurotensin (Ligand(+) format in FIG. 12). […] All of these also have increased thermostability. • 5. Preferred combinations are • a. Nag7m F358A+A86L+I260A+F342A Tm 51° C. (neurotensin bound) • b. Nag7n F358A+H103A+I260A+F342A Tm 51° C. (neurotensin bound) • Wildtype NTR has a Tm of 35° C. with neurotensin bound.

B1: C386A: NTR point mutant (protein, UniProt P20789 1-424, looked up, variant C386A)
Neurotensin receptor type 1: MHLNSSVPQGTPGEPDAQPFSGPQSEMEATFLALSLSNGSGNTSESDTAGPNSDLDVNTDIYSKVLVTAIYLALFVVGTVGNSVTAFTLARKKSLQSLQSTVHYHLGSLALSDLLILLLAMPVELYNFIWVHHPWAFGDAGCRGYYFLRDACTYATALNVASLSVERYLAICHPFKAKTLMSRSRTKKFISAIWLASALLAIPMLFTMGLQNRSGDGTHPGGLVCTPIVDTATVKVVIQVNTFMSFLFPMLVISILNTVIANKLTVMVHQAAEQGRVCTVGTHNGLEHSTFNMTIEPGRVQALRHGVLVLRAVVIAFVVCWLPYHVRRLMFCYISDEQWTTFLFDFYHYFYMLTNALFYVSSAINPILYNLVSANFRQVFLSTLAALCPGWRHRRKKRPTFSRKPNSMSSNHAFSTSATRETLY
  thermostability, 3H-neurotensin (agonist) binding after the heating step: small but significant increase in thermostability

B2: K397A: NTR point mutant (protein, UniProt P20789 1-424, looked up, variant K397A)
Neurotensin receptor type 1: MHLNSSVPQGTPGEPDAQPFSGPQSEMEATFLALSLSNGSGNTSESDTAGPNSDLDVNTDIYSKVLVTAIYLALFVVGTVGNSVTAFTLARKKSLQSLQSTVHYHLGSLALSDLLILLLAMPVELYNFIWVHHPWAFGDAGCRGYYFLRDACTYATALNVASLSVERYLAICHPFKAKTLMSRSRTKKFISAIWLASALLAIPMLFTMGLQNRSGDGTHPGGLVCTPIVDTATVKVVIQVNTFMSFLFPMLVISILNTVIANKLTVMVHQAAEQGRVCTVGTHNGLEHSTFNMTIEPGRVQALRHGVLVLRAVVIAFVVCWLPYHVRRLMFCYISDEQWTTFLFDFYHYFYMLTNALFYVSSAINPILYNLVSANFRQVFLSTLACLCPGWRHRRKARPTFSRKPNSMSSNHAFSTSATRETLY
  thermostability, 3H-neurotensin (agonist) binding after the heating step: small but significant increase in thermostability

B3: H393A: NTR point mutant (protein, UniProt P20789 1-424, looked up, variant H393A)
Neurotensin receptor type 1: MHLNSSVPQGTPGEPDAQPFSGPQSEMEATFLALSLSNGSGNTSESDTAGPNSDLDVNTDIYSKVLVTAIYLALFVVGTVGNSVTAFTLARKKSLQSLQSTVHYHLGSLALSDLLILLLAMPVELYNFIWVHHPWAFGDAGCRGYYFLRDACTYATALNVASLSVERYLAICHPFKAKTLMSRSRTKKFISAIWLASALLAIPMLFTMGLQNRSGDGTHPGGLVCTPIVDTATVKVVIQVNTFMSFLFPMLVISILNTVIANKLTVMVHQAAEQGRVCTVGTHNGLEHSTFNMTIEPGRVQALRHGVLVLRAVVIAFVVCWLPYHVRRLMFCYISDEQWTTFLFDFYHYFYMLTNALFYVSSAINPILYNLVSANFRQVFLSTLACLCPGWRARRKKRPTFSRKPNSMSSNHAFSTSATRETLY
  thermostability, 3H-neurotensin (agonist) binding after the heating step: small but significant increase in thermostability

B4: I116A: NTR point mutant (protein, UniProt P20789 1-424, looked up, variant I116A)
Neurotensin receptor type 1: MHLNSSVPQGTPGEPDAQPFSGPQSEMEATFLALSLSNGSGNTSESDTAGPNSDLDVNTDIYSKVLVTAIYLALFVVGTVGNSVTAFTLARKKSLQSLQSTVHYHLGSLALSDLLALLLAMPVELYNFIWVHHPWAFGDAGCRGYYFLRDACTYATALNVASLSVERYLAICHPFKAKTLMSRSRTKKFISAIWLASALLAIPMLFTMGLQNRSGDGTHPGGLVCTPIVDTATVKVVIQVNTFMSFLFPMLVISILNTVIANKLTVMVHQAAEQGRVCTVGTHNGLEHSTFNMTIEPGRVQALRHGVLVLRAVVIAFVVCWLPYHVRRLMFCYISDEQWTTFLFDFYHYFYMLTNALFYVSSAINPILYNLVSANFRQVFLSTLACLCPGWRHRRKKRPTFSRKPNSMSSNHAFSTSATRETLY
  thermostability, 3H-neurotensin (agonist) binding after the heating step: small but significant increase in thermostability

B5: F358A: NTR point mutant (protein, UniProt P20789 1-424, looked up, variant F358A)
Neurotensin receptor type 1: MHLNSSVPQGTPGEPDAQPFSGPQSEMEATFLALSLSNGSGNTSESDTAGPNSDLDVNTDIYSKVLVTAIYLALFVVGTVGNSVTAFTLARKKSLQSLQSTVHYHLGSLALSDLLILLLAMPVELYNFIWVHHPWAFGDAGCRGYYFLRDACTYATALNVASLSVERYLAICHPFKAKTLMSRSRTKKFISAIWLASALLAIPMLFTMGLQNRSGDGTHPGGLVCTPIVDTATVKVVIQVNTFMSFLFPMLVISILNTVIANKLTVMVHQAAEQGRVCTVGTHNGLEHSTFNMTIEPGRVQALRHGVLVLRAVVIAFVVCWLPYHVRRLMFCYISDEQWTTFLFDFYHYFYMLTNALAYVSSAINPILYNLVSANFRQVFLSTLACLCPGWRHRRKKRPTFSRKPNSMSSNHAFSTSATRETLY
Ligand(+) format
  thermostability, heated in the presence of 3H-neurotensin: improved thermostability
  thermostability, 3H-neurotensin (agonist) binding after the heating step: small but significant increase in thermostability

B6: S108A: NTR point mutant (protein, UniProt P20789 1-424, looked up, variant S108A)
Neurotensin receptor type 1: MHLNSSVPQGTPGEPDAQPFSGPQSEMEATFLALSLSNGSGNTSESDTAGPNSDLDVNTDIYSKVLVTAIYLALFVVGTVGNSVTAFTLARKKSLQSLQSTVHYHLGALALSDLLILLLAMPVELYNFIWVHHPWAFGDAGCRGYYFLRDACTYATALNVASLSVERYLAICHPFKAKTLMSRSRTKKFISAIWLASALLAIPMLFTMGLQNRSGDGTHPGGLVCTPIVDTATVKVVIQVNTFMSFLFPMLVISILNTVIANKLTVMVHQAAEQGRVCTVGTHNGLEHSTFNMTIEPGRVQALRHGVLVLRAVVIAFVVCWLPYHVRRLMFCYISDEQWTTFLFDFYHYFYMLTNALFYVSSAINPILYNLVSANFRQVFLSTLACLCPGWRHRRKKRPTFSRKPNSMSSNHAFSTSATRETLY
  thermostability, 3H-neurotensin (agonist) binding after the heating step: small but significant increase in thermostability

B7: M181A: NTR point mutant (protein, UniProt P20789 1-424, looked up, variant M181A)
Neurotensin receptor type 1: MHLNSSVPQGTPGEPDAQPFSGPQSEMEATFLALSLSNGSGNTSESDTAGPNSDLDVNTDIYSKVLVTAIYLALFVVGTVGNSVTAFTLARKKSLQSLQSTVHYHLGSLALSDLLILLLAMPVELYNFIWVHHPWAFGDAGCRGYYFLRDACTYATALNVASLSVERYLAICHPFKAKTLASRSRTKKFISAIWLASALLAIPMLFTMGLQNRSGDGTHPGGLVCTPIVDTATVKVVIQVNTFMSFLFPMLVISILNTVIANKLTVMVHQAAEQGRVCTVGTHNGLEHSTFNMTIEPGRVQALRHGVLVLRAVVIAFVVCWLPYHVRRLMFCYISDEQWTTFLFDFYHYFYMLTNALFYVSSAINPILYNLVSANFRQVFLSTLACLCPGWRHRRKKRPTFSRKPNSMSSNHAFSTSATRETLY
  thermostability, 3H-neurotensin (agonist) binding after the heating step: small but significant increase in thermostability

B8: R392A: NTR point mutant (protein, UniProt P20789 1-424, looked up, variant R392A)
Neurotensin receptor type 1: MHLNSSVPQGTPGEPDAQPFSGPQSEMEATFLALSLSNGSGNTSESDTAGPNSDLDVNTDIYSKVLVTAIYLALFVVGTVGNSVTAFTLARKKSLQSLQSTVHYHLGSLALSDLLILLLAMPVELYNFIWVHHPWAFGDAGCRGYYFLRDACTYATALNVASLSVERYLAICHPFKAKTLMSRSRTKKFISAIWLASALLAIPMLFTMGLQNRSGDGTHPGGLVCTPIVDTATVKVVIQVNTFMSFLFPMLVISILNTVIANKLTVMVHQAAEQGRVCTVGTHNGLEHSTFNMTIEPGRVQALRHGVLVLRAVVIAFVVCWLPYHVRRLMFCYISDEQWTTFLFDFYHYFYMLTNALFYVSSAINPILYNLVSANFRQVFLSTLACLCPGWAHRRKKRPTFSRKPNSMSSNHAFSTSATRETLY
  thermostability, 3H-neurotensin (agonist) binding after the heating step: small but significant increase in thermostability

B9: D113A: NTR point mutant (protein, UniProt P20789 1-424, looked up, variant D113A)
Neurotensin receptor type 1: MHLNSSVPQGTPGEPDAQPFSGPQSEMEATFLALSLSNGSGNTSESDTAGPNSDLDVNTDIYSKVLVTAIYLALFVVGTVGNSVTAFTLARKKSLQSLQSTVHYHLGSLALSALLILLLAMPVELYNFIWVHHPWAFGDAGCRGYYFLRDACTYATALNVASLSVERYLAICHPFKAKTLMSRSRTKKFISAIWLASALLAIPMLFTMGLQNRSGDGTHPGGLVCTPIVDTATVKVVIQVNTFMSFLFPMLVISILNTVIANKLTVMVHQAAEQGRVCTVGTHNGLEHSTFNMTIEPGRVQALRHGVLVLRAVVIAFVVCWLPYHVRRLMFCYISDEQWTTFLFDFYHYFYMLTNALFYVSSAINPILYNLVSANFRQVFLSTLACLCPGWRHRRKKRPTFSRKPNSMSSNHAFSTSATRETLY
  thermostability, 3H-neurotensin (agonist) binding after the heating step: small but significant increase in thermostability

B10: G209A: NTR point mutant (protein, UniProt P20789 1-424, looked up, variant G209A)
Neurotensin receptor type 1: MHLNSSVPQGTPGEPDAQPFSGPQSEMEATFLALSLSNGSGNTSESDTAGPNSDLDVNTDIYSKVLVTAIYLALFVVGTVGNSVTAFTLARKKSLQSLQSTVHYHLGSLALSDLLILLLAMPVELYNFIWVHHPWAFGDAGCRGYYFLRDACTYATALNVASLSVERYLAICHPFKAKTLMSRSRTKKFISAIWLASALLAIPMLFTMALQNRSGDGTHPGGLVCTPIVDTATVKVVIQVNTFMSFLFPMLVISILNTVIANKLTVMVHQAAEQGRVCTVGTHNGLEHSTFNMTIEPGRVQALRHGVLVLRAVVIAFVVCWLPYHVRRLMFCYISDEQWTTFLFDFYHYFYMLTNALFYVSSAINPILYNLVSANFRQVFLSTLACLCPGWRHRRKKRPTFSRKPNSMSSNHAFSTSATRETLY
  thermostability, 3H-neurotensin (agonist) binding after the heating step: small but significant increase in thermostability

B11: Nag7m: NTR mutant F358A+A86L+I260A+F342A (protein)
chain: TSESDTAGPNSDLDVNTDIYSKVLVTAIYLALFVVGTVGNSVTLFTLARKKSLQSLQSTVHYHLGSLALSDLLILLLAMPVELYNFIWVHHPWAFGDAGCRGYYFLRDACTYATALNVASLSVERYLAICHPFKAKTLMSRSRTKKFISAIWLASALLAIPMLFTMGLQNRSGDGTHPGGLVCTPIVDTATVKVVIQVNTFMSFLFPMLVISILNTVAANKLTVMVHQAAEQGRVCTVGTHNGLEHSTFNMTIEPGRVQALRHGVLVLRAVVIAFVVCWLPYHVRRLMFCYISDEQWTTALFDFYHYFYMLTNALAYVSSAINPILYNLVSANFRQVFLSTLACLCPGWRHRRKKRPTFSRKPNSMSSNHAFSTSATRETLY
Neurotensin bound
  Tm: 51 °C
